These results are taken from US20090137467A1.

The target in assay [1] is [Asn516]β-RNAP (Escherichia coli).
The target is the same in assay [2]. This is another data set of the same source.
For assay [3], the target named is Escherichia coli RNA polymerase (Escherichia coli) (UniProt P0A8T7).

Where two headings read alike, the source gives them in different places.

Substance “{rifamycin SV}-{CH2C(O)NH(CH2)6NHC(O)CH2S(CH2)3C(NH2+)}-{[Lys5]MccJ25} (from UniProt Q9X2V7) (peptide)” registered an inhibition of transcription (IC50) in assay [1] of 130 µM.

On to “{rifamycin SV}-{CH2C(O)NH(CH2)8NHC(O)CH2S(CH2)3C(NH2+)}-{[Lys5]MccJ25} (from UniProt Q9X2V7) (peptide)”, for which the inhibition of transcription (IC50) in assay [1] is 100 µM.

“{rifamycin SV}-{CH2C(O)NH(CH2)10NHC(O)(CH2)2(C2N3)(CH2)4C(O)}-{[Lys5]microcin J25} (from UniProt Q9X2V7) (peptide)”: in assay [2], the inhibition of transcription (IC50) stood at 220 µM.

“{rifamycin SV}-{CH2C(O)NH(CH2)10NHC(O)CH2S(CH2)3C(NH2+)}-{[Lys5]MccJ25} (from UniProt Q9X2V7) (peptide)” had an inhibition of transcription (IC50) in assay [1] of 95 µM.

Regarding “{rifamycin SV}-{CH2C(O)NH(CH2)12NHC(O)CH2S(CH2)3C(NH2+)}-{[Lys5]microcin J25} (from UniProt Q9X2V7) (peptide)”, the inhibition of RNAP (IC50) in assay [3] amounted to 2 nM. The substance also yielded an inhibition of transcription (IC50) in assay [1] of 48 µM.
